Drawing on publication PMC8133496 (PLoS Biology, 2021), this text covers binding result and Kd for three molecules.

Conditions in all cases: both partners purified
For assay [1], the target named is SARS-CoV-2 spike receptor-binding domain (residues 333 to 530), carboxyl-terminal 8xHis tag (Severe acute respiratory syndrome …, UniProt P0DTC2). Briefly: crystal structure.
The target of assay [2] is recombinant SARS-CoV-2 S1 protein (SARS-CoV-2, wild type (reference), UniProt P0DTC2). Briefly: BLI.
Assay [3] addresses recombinant SARS-CoV-2 S1 RBD protein (Severe acute respiratory syndrome …, UniProt P0DTC2). Briefly: BLI.

Bounds are passed on as bounds.

B1: PR961 single-chain variable fragment (scFv, V domains shown)
VH: QVQLVQSGAEVKKPGASVKLSCKASGYSFTSYWVNWVRQAPGQGLEWIGMIHPSDSETRLNQKFKDRVTITVDKSTSTAYMELSSLRSEDTAVYYCARADGYEWYFDVWGRGTLVTVSS
VL: DIVLTQSPASLAVSPGQRATITCRASESVDSYGNSFMHWYQQKPGQPPKLLIYRASNLESGIPARFSGSGSGTDFTLTINPVEANDVANYYCQQSNEDPWTFGQGTKVEIK
notes: also called PR961 scFv
Consider B1, for which the binding result in assay [1] is given as “binds”.

B2: PR1077 (antibody, V domains shown)
VH: QVQLVESGGGVVQPGRSLRLSCAASGFTFSYYGMHWVRQAPGKGLEWVAVIWYDGSNRFYADSVKGRFTISRDNSKSTLYLQMNSLRAEDTAVYYCATDPPGLRFRFDYWGQGTLVTVSS
VL: not shown
notes: source: HEK 293F or ExpiCHO, transfected, purified (Protein A)
As a reminder, the Kd is the equilibrium constant for the complex coming apart. Take B2: the Kd amounted to 0.543 nM in assay [2] and 2.33 nM in assay [3].

B3: PR953 (antibody, V domains shown)
VH: EVQLQQSGPELVKPGASVKISCKTSGYTFTEYTMHWVKQSHGKSLEWIGGINPNNGDNTYNQKLKGKATLTVHKSSSTAYMELRSLTSEDSAVYYCARDGYPYYYALDYWGQGTSVTVSS
VL: DIVMTQSQKFMSTSVGDRVSVTCKASQNVGTNVAWYQQKPGQSPKPLIYSASSRYSGVPDRFTGSGSGTDFTLTISNVQSEDLAEYFCQQYNNYPWTFGGGTKLEIK
notes: as for B2
In the case of B3, the Kd in assay [3] was below 0.001 nM.
